Experiments:
[1] = target: T1, Hmm-hTFRC (REGN2431), monomeric human transferrin receptor ectodomain with N-terminal hexahistidine-myc-myc … (human, UniProt P02786 89-760); assay: blocking ELISA, supernatant; Hmm-hTFRC binding to immobilized human holo-Tf
T1 construct: also called hmm.hTfR(C89-F763); His-myc-myc-hTFRC ecto
Protocol: In the blocking assay, the anti-human Transferrin goat IgG polyclonal antibody (anti-hTf pAb) was passively absorbed at a concentration of 2 micrograms/mL in PBS on a 96-well microtiter plate overnight at 4° C. […] To the same plate, human holo-Tf was then added at a concentration of 1 micrograms/mL in PBS+0.5% BSA for 2 hours at room temperature. […] After a 1-hour incubation, the mixtures were transferred to the human holo-Tf microtiter plates. […] The plates were developed using TMB substrate solution according to the manufacturer's recommended procedure and absorbance at 450 nm was measured on a Victor™ Multilabel Plate Reader.
The ability of the anti-TfR antibody to block human TFRC binding to human holo-Tf was evaluated using an ELISA-based blocking assay.

[2] = target: T2, mf TFRC ecto-mmh (REGN2054), monomeric monkey (cyno) Tfrc ectodomain with C-terminal myc-myc-hexahistidine tag (monkey (cyno), Macaca fascicularis, UniProt H9EXL1 89-760); assay: SPR (Biacore), mAb captured on anti-human Fc, 100 nM mfTfR-mmh, 25 C
T2 construct: range 89-760; also called mfTfR-mmh; mfTFR-mmh
T2 sequence (chain, as listed by the source): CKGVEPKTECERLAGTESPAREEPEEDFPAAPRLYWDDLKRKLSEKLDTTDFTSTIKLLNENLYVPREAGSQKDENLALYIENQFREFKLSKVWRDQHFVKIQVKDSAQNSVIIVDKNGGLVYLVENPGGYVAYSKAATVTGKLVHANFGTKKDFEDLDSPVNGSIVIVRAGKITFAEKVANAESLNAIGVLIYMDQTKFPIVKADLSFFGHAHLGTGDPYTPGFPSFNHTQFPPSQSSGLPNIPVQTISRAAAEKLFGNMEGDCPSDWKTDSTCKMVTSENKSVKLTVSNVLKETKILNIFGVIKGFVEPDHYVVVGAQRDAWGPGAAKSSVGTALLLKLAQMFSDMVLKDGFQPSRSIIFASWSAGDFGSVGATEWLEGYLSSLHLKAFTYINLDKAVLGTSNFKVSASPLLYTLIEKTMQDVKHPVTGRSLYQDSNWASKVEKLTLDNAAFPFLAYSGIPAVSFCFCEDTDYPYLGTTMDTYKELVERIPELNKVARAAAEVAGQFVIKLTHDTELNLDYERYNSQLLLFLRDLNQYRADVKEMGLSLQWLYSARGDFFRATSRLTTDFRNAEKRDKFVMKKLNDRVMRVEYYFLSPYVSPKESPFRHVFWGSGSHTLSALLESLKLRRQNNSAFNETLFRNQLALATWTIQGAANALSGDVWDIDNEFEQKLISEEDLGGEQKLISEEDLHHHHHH
Protocol: (§1) Biacore binding kinetics assays were conducted for the interaction of 32 anti-human TfR IgG1 monoclonal antibodies from CHO supernatants with TfR reagents at 25° C.
(§2) Equilibrium dissociation constants (KD) for the interaction of anti-TfR monoclonal antibodies with human and fascicularis monkey TfR ecto domain recombinant proteins were determined using a real-time surface plasmon resonance (SPR) based Biacore S200 biosensor. All binding studies were performed in 10 mM HEPES, 150 mM NaCl, 3 mM EDTA, and 0.05% v/v surfactant Tween-20, pH 7.4 (HBS-EP) running buffer at […]. The Biacore CM5 sensor surface was first derivatized by amine coupling with a monoclonal mouse anti-human Fc antibody (REGN2567) followed by a step to capture anti-TfR monoclonal antibodies in CHO conditioned media. […] The dissociation of TfR bound to anti-TfR monoclonal antibodies was monitored for 3 minutes in HBS-EP running buffer. At the end of each cycle, the anti-TfR monoclonal antibodies capture surface was regenerated using a 12-sec injection of 20 mM H₃PO₄. The association rate (ka) and dissociation rate (kd) were determined by fitting the real-time binding sensorgrams to a 1:1 binding model with mass transport limitation using Scrubber 2.0 c software. The dissociation equilibrium constant (KD) and dissociative half-life (t½) were calculated from the kinetic rate constants as: […]

[3] = target: T3, hmm.hTfRC (REGN2431), human transferrin receptor extracellular domain with hexahistidine-myc-myc tag (human, UniProt P02786 89-760); assay: SPR (Biacore), mAb captured on anti-human Fc, 100 nM hTFR-mmh, 25 C
T3 construct: Monomeric recombinant protein, 79210 g/mol; also called hTFR-mmh; His-myc-myc-hTFRC ecto
T3 sequence (P02786 other isoform, or with tags, fused parts or gaps): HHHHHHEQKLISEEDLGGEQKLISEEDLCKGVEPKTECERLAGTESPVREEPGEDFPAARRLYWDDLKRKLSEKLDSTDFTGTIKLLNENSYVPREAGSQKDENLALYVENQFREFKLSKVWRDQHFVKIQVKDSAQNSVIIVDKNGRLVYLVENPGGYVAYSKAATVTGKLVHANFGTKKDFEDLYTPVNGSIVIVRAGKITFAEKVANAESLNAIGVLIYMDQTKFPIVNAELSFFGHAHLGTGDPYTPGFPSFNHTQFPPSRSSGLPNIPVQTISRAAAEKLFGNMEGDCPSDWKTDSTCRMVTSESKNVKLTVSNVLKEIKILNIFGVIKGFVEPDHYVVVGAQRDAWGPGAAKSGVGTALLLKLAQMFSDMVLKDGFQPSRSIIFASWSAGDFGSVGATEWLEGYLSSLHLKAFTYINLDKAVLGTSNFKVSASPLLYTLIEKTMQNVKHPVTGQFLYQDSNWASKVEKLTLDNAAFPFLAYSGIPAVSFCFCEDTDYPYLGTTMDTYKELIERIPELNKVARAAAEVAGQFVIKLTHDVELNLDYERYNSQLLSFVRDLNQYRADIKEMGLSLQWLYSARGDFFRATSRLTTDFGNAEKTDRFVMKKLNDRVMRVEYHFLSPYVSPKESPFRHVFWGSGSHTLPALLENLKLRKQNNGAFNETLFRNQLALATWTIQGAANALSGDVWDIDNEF
Protocol: as §1, §2

T1 sequence (P02786 other isoform, or with tags, fused parts or gaps): as above

% Blocking [1] [%]	100 nM Ag Bound (RU) [2] [RU]	Kd [2] [nM]	koff [2] [s⁻¹]	kon [2] [M⁻¹ s⁻¹]	t½ [2] [min]	100 nM Ag Bound (RU) [3] [RU]	Kd [3] [nM]	koff [3] [s⁻¹]	kon [3] [M⁻¹ s⁻¹]	t½ [3] [min]	Binder
45											12795B scFv (VH-VK) (scFv) EVQLVESGGGLVQPGGSLRLSCATSGFTFTSYDMKWVRQAPGLGLEWVSAISGSGGNTYYADSVKGRFTISRDNSRNTLYLQMNSLRAEDTAVYYCTRSHDFGAFDYFDYWGQGTLVTVSSDIQMTQSPSSLSASVGDRVTITCRASQGIRDHFGWYQQKPGKAPKRLIYAASSLHSGVPSRFSGSGSGTEFTLTISSLQPEDFATYYCLQYDTYPLTFGGGTKVEIK
37											12801B scFv (VH-VK) (scFv) EVQLLESGGALVQPGGSLRLSCAASGFTFTSYAMHWVRQAPGKGLEWVSSIRGSGGGTYSADSVKGRFTISRDNSRDTLYLQMNSVRAEDTAVYYCARSHDYGAFDFFDYWGQGTLVTVSSDIQMTQSPSSLSASVGDRVTITCRASQGIRTDLGWYQQKPGKAPKRLIYAASSLQSGVPSRFSGSGSGTEFTLTISSLRPEDFATFYCLQYNSYPLTFGGGTKVEIK
	437	9.68	0.000735	75900	15.7	946	0.935	0.000122	131000	95	12844B (antibody, human IgG1, kappa, V domains shown, Tested as bivalent human IgG1 from CHO primary supernatant) VH: EVQLVESGGSVVRPGGSLRLSCEASGFTFDDYGMSWVRQDPGKGLEWVSGINWNGDRTNYADSVKGRFIISRDNAKNSVYLQMNSLRAEDSALYHCARDQGLGVAATLDYWGQGTLVTVSS VL: not shown
5											12799B Fab (Fab, V domains shown, CHO supernatant) VH: QITLKESGPTLVKPTQTLTLTCTFSGFSLSTSGVGVVWIRQPPGKALEWLALIYWNDHKRYSPSLGSRLTITKDTSKNQVVLTMTNMDPVDTATYYCAHYSGSYSYYYYGLDVWGQGTTVTVSS VL: DIQMTQSPSSVSASVGDRVTITCRASQGIASWLAWYQQKPGKAPELLIYAASSLQGGVPSRFSGSGSGTDFTLTISSLQPEDFAIYYCQQANYFPWTFGQGTKVEIKR
10											12798B scFv (VK-VH) (scFv, CHO supernatant; Vk-3xG4S-Vh) scFv: EIVMTQSPATLSVSPGERATLSCRASQTVSSNLAWYQQKPGQAPRLLIYGSSSRATGIPARFSGSGSGTEFTLTISSLQSEDFAVYYCQQYNNWPPYTFGQGTKLEIKGGGGSGGGGSGGGGSEVQLVESGGDLVQPGRSLRLSCAASGFTFDDYAMHWVRQAPGKGLEWVSGISWNSATRVYADSVKGRFTISRDNAKNFLYLQMNSLRSEDTALYHCAKDMDISLGYYGLDVWGQGTTVTVSS
	87	15.5	0.00157	101000	7.3	725	0.215	1.76e-05	83700	657	12850B (antibody, human IgG1, kappa, V domains shown, Tested as bivalent human IgG1 from CHO primary supernatant; also called H1H12850B; REGN17516) VH: QVQLVQSGAEVKKPGSSVKVSCKASGGTFNTYAITWVRQAPGQGLEWMGGIIPISGIAEYAQKFQGRVTITTDDSSTTAYMELNSLRSEDTAVYYCASWNYALYYFYGMDVWGRGTTVTVSS VL: not shown
	399	15	0.00118	79000	9.8	854	1.78	0.000168	94200	68.8	12843B (antibody, human IgG1, kappa, V domains shown, Tested as bivalent human IgG1 from CHO primary supernatant; also called H1H12843B; REGN17512) VH: EVQLVESGGGLVQPGGSLRLSCAASGFTFNIFEMNWVRQAPGKGLEWISYISSRGTTTYYADSVRGRFTISRDNAKNSLYLQMNSLRAEDTAVYYCARDYEATIPFDFWGQGTLVTVSS VL: not shown
0											12798B scFv (VH-VK) (scFv, CHO supernatant) scFv: EVQLVESGGDLVQPGRSLRLSCAASGFTFDDYAMHWVRQAPGKGLEWVSGISWNSATRVYADSVKGRFTISRDNAKNFLYLQMNSLRSEDTALYHCAKDMDISLGYYGLDVWGQGTTVTVSSGGGGSGGGGSGGGGSEIVMTQSPATLSVSPGERATLSCRASQTVSSNLAWYQQKPGQAPRLLIYGSSSRATGIPARFSGSGSGTEFTLTISSLQSEDFAVYYCQQYNNWPPYTFGQGTKLEIK
23											12795B scFv (VK-VH) (scFv, CHO supernatant; Vk-3xG4S-Vh) scFv: DIQMTQSPSSLSASVGDRVTITCRASQGIRDHFGWYQQKPGKAPKRLIYAASSLHSGVPSRFSGSGSGTEFTLTISSLQPEDFATYYCLQYDTYPLTFGGGTKVEIKGGGGSGGGGSGGGGSEVQLVESGGGLVQPGGSLRLSCATSGFTFTSYDMKWVRQAPGLGLEWVSAISGSGGNTYYADSVKGRFTISRDNSRNTLYLQMNSLRAEDTAVYYCTRSHDFGAFDYFDYWGQGTLVTVSS
	254	17.7	0.00168	95100	6.9	1150	3.11	0.000417	134000	27.7	12835B (antibody, human IgG1, kappa, V domains shown, Tested as bivalent human IgG1 from CHO primary supernatant; also called H1H12835B; REGN17509) VH: EVQLVESGGGLIQPGGSLRLSCEASGFTFRNYEMNWVRQAPGKGLEWVSYISSSGNMKDYAESVKGRFTISRDNVKNSLQLQMNSLRVEDTAVYYCARDEFPYGMDVWGQGTTVTVSS VL: not shown
	702	3.36	0.000333	99200	34.7	895	1.62	0.000171	105000	67.6	12847B (antibody, human IgG1, kappa, V domains shown, Tested as bivalent human IgG1 from CHO primary supernatant; also called H1H12847B; REGN17514) VH: EVQLVESGGGLVQPGRSLRLSCAASGFTFDDYAMNWVRQAPGKGLEWVSGISWSSGSMDYADSVKGRFTISRDNAKNSLYLQMNSLRTEDTALYYCAKAREVGDYYGMDVWGQGTTVTVSS VL: not shown
10											12799B scFv (VK-VH) (scFv, CHO supernatant; Vk-3xG4S-Vh) scFv: DIQMTQSPSSVSASVGDRVTITCRASQGIASWLAWYQQKPGKAPELLIYAASSLQGGVPSRFSGSGSGTDFTLTISSLQPEDFAIYYCQQANYFPWTFGQGTKVEIKGGGGSGGGGSGGGGSQITLKESGPTLVKPTQTLTLTCTFSGFSLSTSGVGVVWIRQPPGKALEWLALIYWNDHKRYSPSLGSRLTITKDTSKNQVVLTMTNMDPVDTATYYCAHYSGSYSYYYYGLDVWGQGTTVTVSS
27											12801B scFv (VK-VH) (scFv, CHO supernatant; Vk-3xG4S-Vh) scFv: DIQMTQSPSSLSASVGDRVTITCRASQGIRTDLGWYQQKPGKAPKRLIYAASSLQSGVPSRFSGSGSGTEFTLTISSLRPEDFATFYCLQYNSYPLTFGGGTKVEIKGGGGSGGGGSGGGGSEVQLLESGGALVQPGGSLRLSCAASGFTFTSYAMHWVRQAPGKGLEWVSSIRGSGGGTYSADSVKGRFTISRDNSRDTLYLQMNSVRAEDTAVYYCARSHDYGAFDFFDYWGQGTLVTVSS
44											12795B Fab (Fab, V domains shown, CHO supernatant) VH: EVQLVESGGGLVQPGGSLRLSCATSGFTFTSYDMKWVRQAPGLGLEWVSAISGSGGNTYYADSVKGRFTISRDNSRNTLYLQMNSLRAEDTAVYYCTRSHDFGAFDYFDYWGQGTLVTVSS VL: DIQMTQSPSSLSASVGDRVTITCRASQGIRDHFGWYQQKPGKAPKRLIYAASSLHSGVPSRFSGSGSGTEFTLTISSLQPEDFATYYCLQYDTYPLTFGGGTKVEIKR
45											12801B Fab (Fab, V domains shown, CHO supernatant) VH: EVQLLESGGALVQPGGSLRLSCAASGFTFTSYAMHWVRQAPGKGLEWVSSIRGSGGGTYSADSVKGRFTISRDNSRDTLYLQMNSVRAEDTAVYYCARSHDYGAFDFFDYWGQGTLVTVSS VL: DIQMTQSPSSLSASVGDRVTITCRASQGIRTDLGWYQQKPGKAPKRLIYAASSLQSGVPSRFSGSGSGTEFTLTISSLRPEDFATFYCLQYNSYPLTFGGGTKVEIKR
10											12798B Fab (Fab, V domains shown, CHO supernatant) VH: EVQLVESGGDLVQPGRSLRLSCAASGFTFDDYAMHWVRQAPGKGLEWVSGISWNSATRVYADSVKGRFTISRDNAKNFLYLQMNSLRSEDTALYHCAKDMDISLGYYGLDVWGQGTTVTVSS VL: not shown
	261	18.2	0.000962	52900	12	823	0.494	4.99e-05	101000	232	12848B (antibody, human IgG1, kappa, V domains shown, Tested as bivalent human IgG1 from CHO primary supernatant; also called H1H12848B; REGN17515) VH: EVQLVESGGGLVQPGRSLTLSCAASGFTFDNFGMHWVRQGPGKGLEWVSGLTWNSGVIGYADSVKGRFTISRDNAKNSLYLQMNSLRPEDTALYYCAKDIRNYGPFDYWGQGTLVTVSS VL: not shown
